Assay: yeast display, Sf9 membrane polyspecificity reagent, FACS + sequencing; frameworks hold sequencing errors
Outline: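 Sorting gates, low and high (top ~1%), were placed on anti-HA fluorescence to track expression and on streptavidin fluorescence to track reagent binding. A clone's polyreactivity label is taken from the gate it came out of. The reagent was 10% biotinylated, detergent-solubilized Sf9 membrane, applied for 1 hour at 4 °C to galactose-induced yeast display cells.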

## QVQLVESGGGLVQAGGSLRLSCAASGSTLGWYVMGWYRQAPGKERELVAAISKSGGRTYYADSVKGRFTISRDNAKNTVYLQMNSLKPEDTAVYYCAAYPPSDFYYEHDYWGQGTQVSVSS
  polyreactivity (PSR sort gate): high polyreactivity

## QVQLVESGGGLVQAGGSLRLSCAASGSTLGYNVMGWYRQAPGKERELVAAISGDGSTNYADSVNGRFTMSRDNAKNTVYLQMNSLKPEDTAVYYCNAPFWGYRTSFSYPVVLRFDYWGQGTQVTVSS
  polyreactivity (PSR sort gate): low polyreactivity

## QVQLVESGGGLVQAGGSLRLSCAASGSTLGYYSMGWYRQAPGKERELVAAIRYSDGNTYYADSVKGRFTISRDNAKNTVYLQMNSLKPEDTAVYYCAADGGYYGRDYWGQVTQVTVSS
  polyreactivity (PSR sort gate): high polyreactivity

## QVQLVESGGGLVQAGGSLRLSCAASGSTLKLNAMGWYRQAPGKERELVAAITRSGGSTYYADSVKGRFTISRDNAKNTVYLQMNSLKPEDTAVYYCAADVLWDEFGYWGQGTQVTVSS
  polyreactivity (PSR sort gate): low polyreactivity

## QVQLVESGGGLVQAGGSLRLSCAASGSTLLTYTMGWYRQAPGKERELVASITTSGGSTYADSVKGRFTISRDNAKNTVYLQLNSLKPEDTAVYYCAALYLWYSYHVVYQYDYWGQGTQVTVSS
  polyreactivity (PSR sort gate): low polyreactivity

## QVQLVESGGGLVQAGGSLRLSCAASGSTLLTYTMGWYRQAPGKESELVASITTSGGSTYYADSVKGRFTISRDNAKNTVYLQMNSLKPEDTAVYYWGQGTQVTVSS
  polyreactivity (PSR sort gate): low polyreactivity

## QVQLVESGGGLVQAGGSLRLSCAASGSTLNLYAMGWFRQAPGKEMELVAAIRSHGVSTYYADSVKGRFTISRDNAKNTVYLQMNRLKPEYTAFYYCAGVYIPGGRYTYFPYKRYDYWGQGTQVTVSS
  polyreactivity (PSR sort gate): high polyreactivity

## QVQLVESGGGLVQAGGSLRLSCAASGSTLNSYVMGWYRQAPGKERELVATIRSGSSTNYADSVNGRFTISRDNAKNTVYLQMNSLKPEDTAVYYCAADAYSLCYDSWGQGTQVTVSS
  polyreactivity (PSR sort gate): low polyreactivity

## QVQLVESGGGLVQAGGSLRLSCAASGSTLPPYVMGRYRQAPGKERELVAAISSSSGSTYYADSVKGRFTISRDNAKNTVYLQRNSLKPEDTAVYYCAAVTGWAREEEYWGQGTQVTVSS
  polyreactivity (PSR sort gate): low polyreactivity

## QVQLVESGGGLVQAGGSLRLSCAASGSTLPYYAMGWYRQAPGKERELVAAITSSGGDTYYADSVKGRFTISRDNAKNTVYLQMNSLKPEDTAVYYCAKSYSARSTVRKLFYFAYDYWGQGTQVTVSS
  polyreactivity (PSR sort gate): low polyreactivity

## QVQLVESGGGLVQAGGSLRLSCAASGSTLQYYDMGWYRQAPGKERELVAAITWSTGTTYYADSVKGRFTISRDNAKNTVYLQMNSLKPEDTAVYYCAVDSYYRATYTNRYDYWGQGTQVTVSS
  polyreactivity (PSR sort gate): low polyreactivity

## QVQLVESGGGLVQAGGSLRLSCAASGSTLRGYALGWYRQAPGKERELVAAISKNGGSTYYADSVKGRFTISRDNAKNTVYLQMNSLNPEDTAVYYCAAYKAVPHYYYWGQGTQVTVSS
  polyreactivity (PSR sort gate): high polyreactivity

## QVQLVESGGGLVQAGGSLRLSCAASGSTLRPYGMGWYRQAPGKERELVATIRSSSGRTYYADSVKGRFTISRDNAKTTVYLQMTSLKPEDTAVYYCARRYITNIKYDYWGQGTQVTVSS
  polyreactivity (PSR sort gate): high polyreactivity

## QVQLVESGGGLVQAGGSLRLSCAASGSTLRRNAMGWYRQAPGTERELVAAITGSRGSTFYADSVKGRFTISRDNAKNTVYLQMNSLKPEDTAVYYCAVYKWSTRVSQYRYDYWGQGTQVTVSS
  polyreactivity (PSR sort gate): high polyreactivity

## QVQLVESGGGLVQAGGSLRLSCAASGSTLRRYAMGWDRQAPGKERELVAAISGSGDSTYYADSVKGRFTISRDNAKNTVYLQMNSLKPEDTAVYYCNAVYAFNGYDYWGQGTQVTVSS
  polyreactivity (PSR sort gate): low polyreactivity

## QVQLVESGGGLVQAGGSLRLSCAASGSTLRYYGMGWYRQAPGKEREFVATLSWGGGSTYYADSVKGRFTISRDNAKNTVYLQINSLKPEDTAVYYCAASWNGGLFQTKYGYWGQGTQVTVSS
  polyreactivity (PSR sort gate): high polyreactivity

## QVQLVESGGGLVQAGGSLRLSCAASGSTLSANAMGWYRQAPGKERELVAAISWNGGSTYYADSVKGRFTISRDNAKNTVYLQMNSLKPEDTAVYYCAAEYIVTYEYWYFGYDYWGQGTQVTVSS
  polyreactivity (PSR sort gate): low polyreactivity

## QVQLVESGGGLVQAGGSLRLSCAASGSTLSFNAMGWYRQAPGKERELVAAITSSGGSTYYADSVKGRFTISRDNAKNTVYLQMKSLKPEDTAVYYCAADRYTVRMDYWGQGTQVTVSS
  polyreactivity (PSR sort gate): high polyreactivity

## QVQLVESGGGLVQAGGSLRLSCAASGSTLSNNAMGWYRQAPGKERELVAAINDSAGSTYYADSVKGRFTISRDNAKNTVYLQMNSLKPEDTAVYYCAAKNYGRSFYYGYDYWEQGTQVTVSS
  polyreactivity (PSR sort gate): low polyreactivity

## QVQLVESGGGLVQAGGSLRLSCAASGSTLSVYAKGSYIQAPGKEREFVASISSSVGRTFYADSVKGRFTISRDNANNTVYLQMNSLNQEDTAVYYCAARRRTFYASSSAINGYDYWRQGTQVTVSS
  polyreactivity (PSR sort gate): high polyreactivity

## QVQLVESGGGLVQAGGSLRLSCAASGSTLTSNAIGWYRQAPGKERELVAAIRSGGSTNYADSVKGRFTISRDNAKNTVYLQMYSLNPEDTAVYYCNAEEKVTYSASYYWVYDAMDHWGQGTQVTVSS
  polyreactivity (PSR sort gate): low polyreactivity

## QVQLVESGGGLVQAGGSLRLSCAASGSTLVFYAMGWYRQAPGKERELVAAITRSGGSTYYADSVKGRFTISRDNEKNTVYLQMNSLKPEDTAFYYCAADERYIYERDSWGQGTQVTVSS
  polyreactivity (PSR sort gate): low polyreactivity

## QVQLVESGGGLVQAGGSLRLSCAASGSTLVLNALGWYRQAPGKERELVAAITISGDTTYYADSVKGRFTISRDNAKNTVYLQMNSLKPEDTAVYYCAAVVSTVDGMEYWGQGTQVTVSS
  polyreactivity (PSR sort gate): low polyreactivity

## QVQLVESGGGLVQAGGSLRLSCAASGSTLVYNDMGWYRQAPGKEREFVAAIRSNDGSTYYADSVKGRFTISRDNAKNTVYLQMNSLKPEDTAVYYCAARYPARGTLYYWGQGTQVTVSS
  polyreactivity (PSR sort gate): low polyreactivity

## QVQLVESGGGLVQAGGSLRLSCAASGSTLWGYAMGWYRPAPGKERELVAAITSSGGITYYADSVKGRFTISRDNAKNTVYLQMNSLKPEDTAVYYCAVDYYVVGWTYLYYYRGQGTQVTVSS
  polyreactivity (PSR sort gate): low polyreactivity

## QVQLVESGGGLVQAGGSLRLSCAASGSTLWGYVMGWYRQAPGKERELVAVISKSGGSTYYADSVKGRFTISRDNAKNTVYLQMNSLKPEDTAVYYCATRGPYRSDWGQGTQVTVSS
  polyreactivity (PSR sort gate): high polyreactivity

## QVQLVESGGGLVQAGGSLRLSCAASGSTLWRSAMGWYRQAPGKERELVAGISRGGGSTYYADSVKGRFTISRDNAKNTVYLQMHSLKPEDTAVYYCATPVYQVRGAFDYWGQGTQVTVSS
  polyreactivity (PSR sort gate): low polyreactivity

## QVQLVESGGGLVQAGGSLRLSCAASGSTLWYNAMGWYRQAPGKERELVASITSDGGSSTYADSVKGRFTISRDNAKNTVYLQMNSQKPEDTAVYYCAADWPIVQYDYWGQGTQVTVSS
  polyreactivity (PSR sort gate): low polyreactivity

## QVQLVESGGGLVQAGGSLRLSCAASGSTLYFYAMGWYRQAPGKERELVADITRSGGSTYYADSVKGRFTISRDNAKNTVYLQMNSLKPEDTAVYYCNADDWSTYWYGYPGYDYWGQGTQVTVSS
  polyreactivity (PSR sort gate): high polyreactivity

## QVQLVESGGGLVQAGGSLRLSCAASGSTLYGYAMGWYRQAPGNERELVAAISVSGGRTYYADSVKGRFTISRDNAKNTVYLQMNSLKPEDTAVYYCAAYGTTRMDYWGQGTQVTVSS
  polyreactivity (PSR sort gate): high polyreactivity

## QVQLVESGGGLVQAGGSLRLSCAASGSTLYPNAMGWYRHAPGKERELVAAISSGSSTYADSVKGRFTISRDNAKNTVYLQMNSLKPEDTAVYYCNADSRIHYDYWGQGTQLTVSS
  polyreactivity (PSR sort gate): low polyreactivity

## QVQLVESGGGLVQAGGSLRLSCAASGSTLYPNAMGWYRQAPGKERELVAAISSGSSTYADSVKGRFTISRDNAKNTVYLQMNRLKPEDTAVYYCNADSRIHYDYWGQGTQVTVSS
  polyreactivity (PSR sort gate): low polyreactivity

## QVQLVESGGGLVQAGGSLRLSCAASGSTLYQYTMGWYRQAPGKERELVAGISRRGGSTYYADSVKGRFTISRDNAKNTVYLQMNSLKPEDTAVYYCAKRPPYIAWYGYNGDYWGQGTQVTVSS
  polyreactivity (PSR sort gate): high polyreactivity

## QVQLVESGGGLVQAGGSLRLSCAASGSTLYRYAMGWYRQAAGKERELVATITRSGGSTYYADSVKGRFTISRDNAKNTVYLQMNSLKPEDTAVYSCAAYRKVGGFSRGDYWGQGTQVTVSS
  polyreactivity (PSR sort gate): high polyreactivity

## QVQLVESGGGLVQAGGSLRLSCAASGSTLYSYAMGWYRQAPGKERELVAAISIGDSTNYADSVKGRFTISRDNAKNTVYLQMNSLKPVDTAVYYCAADWDESYSYRRYRHYDYWGQGTQVSVSS
  polyreactivity (PSR sort gate): low polyreactivity

## QVQLVESGGGLVQAGGSLRLSCAASGSTLYTYAMGWYRPAPGKERELVAAIRLSGGRTYYADSVKGRFTISRDNAKNTVYLQMNSLKPEDTAVYYCAVDWSYSRYDYWGQGTQVTVSS
  polyreactivity (PSR sort gate): high polyreactivity

## QVQLVESGGGLVQAGGSLRLSCAASGSTLYTYAMRWYRQAPGKERELVAAIRLSGGRTYYADSVKGRFTISRDNAKNTVYLQMYSLKPEDTAVYDFAVDWSYSRYDYWGQGTQVTVSS
  polyreactivity (PSR sort gate): high polyreactivity

## QVQLVESGGGLVQAGGSLRLSCAASGSTLYVNAMGLYRQAPGKERELVAAISWRGDRTYYADSVKGRFTISRDNAKNNVYLQMNSLKPEDTAVYYCAKDYWWKGTTLYYNLDYWGQGTQVTVSS
  polyreactivity (PSR sort gate): high polyreactivity

## QVQLVESGGGLVQAGGSLRLSCAASGSTLYWYAMGWYRQAPGKERELVARITVSGGSTSYADSVKGRFTISRYNAKNTVYLQMNSLKPEDTAVYYCAARRYWTGYYYWGQGTQVTVSS
  polyreactivity (PSR sort gate): high polyreactivity

## QVQLVESGGGLVQAGGSLRLSCAASGSTLYYNAMGWYRQAPGKERELVAAISWSGGSTYYADSVKGRFTISRDNAKNTVYLQMNSLKPEDTAVYYCAADQSTVLDVGSWGQGTQVTVSS
  polyreactivity (PSR sort gate): low polyreactivity

## QVQLVESGGGLVQAGGSLRLSCAASGSTLYYNAMGWYRQAPGKESELVAAISWSGGSTYYADSVKGRFTISRDNAKNTVYLQMNSLKPEDTAVYYCAADQSTVLDVGSWGQGTQVTVSS
  polyreactivity (PSR sort gate): low polyreactivity

## QVQLVESGGGLVQAGGSLRLSCAASGSTRGYAMGWYRQAPGKEREMVAAIRSSGSTNYADSVKGRFTISRDNAKNTVYLQMNSLKPEDTAVYFCATDGHYLYSWYKYDYWGQGTQVTVSS
  polyreactivity (PSR sort gate): low polyreactivity

## QVQLVESGGGLVQAGGSLRLSCAASGSTRYYAMGWYRHAPGKERELVASITTIGGSTSYADSVKGRFTISRDNAKNTVYLQMNSLKPEDTAVYYCATRSLVYSARAAGLIQFDHWGQGTQVNVSS
  polyreactivity (PSR sort gate): low polyreactivity

— the nanobody polyreactivity screen of Harvey et al. (2022)
